Here are results for 167 variants from the RNAGym collection of RNA variant scans (doi:10.7554/elife.80360).

To fix the notation:
B1: Hammerhead Ribozyme (parent)
chain: ACCGGAUGUGCUUUCCGGUCUGAUGAGUCCGUGAGGACGAAACAG

Variants of B1 are the subject of the data set. Briefly: self-cleavage, relative activity (ratio to wild type); higher = more cleavage; co-transcriptional.
Take G8A C30U: the self-cleavage was 0.826. In the case of G8A C30A, the self-cleavage was determined as 0.929.

Consider G8A C30G, for which the self-cleavage was determined as 1.04. As for G8C C43A, the self-cleavage turned out to be 0.343. The same measure for G8C C43G: 0.403; for G8C C43U: 0.455. Take G8U A26U: the self-cleavage was found to be 0.935. In the case of G8U A26C, the self-cleavage worked out at 0.596.

Regarding G8U A26G, the self-cleavage came out at 0.351. The same measure for G8U G31C: 1.18. As to G8U G31A, the self-cleavage stood at 1.23. The same measure for G8U G31U: 1.08; for G8A G27U: 0.451; for G8A G27A: 0.874. As to G8A G27C, the self-cleavage amounted to 0.665. In the case of U7G U13C, the self-cleavage was 1.45. To U7G U13G belongs 1.67; to G8C U9A, 0.907. To G8C U9G belongs 0.771. G8C U9C: the self-cleavage was determined as 1.05.

As to G8U A23G, the self-cleavage came out at 0.363. As to G8U A23U, the self-cleavage was 0.324. For G8U A23C, the self-cleavage worked out at 0.504.

G8C U14A: the self-cleavage was 1.08. For G8C U14C, the self-cleavage was found to be 0.785. Turning to G8C U14G, the self-cleavage is 1.11. The same measure for G8A C43G: 0.344.

As to G8A C43U, the self-cleavage was 0.381.

For the variant G8A C43A, the self-cleavage was found to be 0.335. On to G8C U24G, for which the self-cleavage was determined as 1.05. Regarding G8C U24C, the self-cleavage amounted to 0.769. As for G8C U24A, the self-cleavage came to 1.17. For the variant G8U U9G, the self-cleavage was 0.751. On to G8U U9C, for which the self-cleavage is 1. To G8U U9A belongs 1.11; to G8U A34C, 0.925; to G8U A34U, 0.792.

With G8U A34G, the self-cleavage stood at 0.927. For the variant G8A G18A, the self-cleavage stood at 0.664. Consider G8A G18C, for which the self-cleavage was 0.574.

Consider G8A G18U, for which the self-cleavage stood at 0.635. With G8C A34G, the self-cleavage amounted to 1.11. In the case of G8C A34C, the self-cleavage is 0.83. To G8C A34U belongs 0.988; to G8U A42C, 0.422; to G8U A42G, 0.367. Consider G8U A42U, for which the self-cleavage amounted to 0.344.

For G8C G10A, the self-cleavage was found to be 1.47. The same measure for G8C G10U: 1.25; for G8C G10C: 1.47; for G8C G22A: 0.347. For G8C G22C, the self-cleavage is 0.339. G8C G22U: the self-cleavage came to 0.341. Consider G8C A40C, for which the self-cleavage was 0.428. As to G8C A40G, the self-cleavage stood at 0.372. In the case of G8C A40U, the self-cleavage came out at 0.286. For G8A G35A, the self-cleavage worked out at 0.939. To G8A G35C belongs 0.543.

In the case of G8A G35U, the self-cleavage turned out to be 0.588. G8C G45U: the self-cleavage is 0.546.

As to G8C G45A, the self-cleavage came to 0.536. As for G8C G45C, the self-cleavage was 0.717. As to G8A A23U, the self-cleavage amounted to 0.383. As for G8A A23C, the self-cleavage turned out to be 0.396.

Consider G8A A23G, for which the self-cleavage was 0.325. As for G8A U32G, the self-cleavage came to 1.09. For G8A U32A, the self-cleavage turned out to be 1.14. As to G8A U32C, the self-cleavage came to 1.02. Take U7G U21C: the self-cleavage amounted to 0.641.

Turning to U7G U21G, the self-cleavage came out at 0.426. U7G U21A: the self-cleavage came out at 0.345. G8U U12C: the self-cleavage stood at 1.35. Take G8U U12A: the self-cleavage turned out to be 0.842.

For the variant G8U A37G, the self-cleavage came out at 0.906. As to G8U A37U, the self-cleavage amounted to 0.774. To G8U A37C belongs 1.09. As to G8C G33C, the self-cleavage is 0.867.

On to G8C G33A, for which the self-cleavage came to 1.11.

Regarding G8C G33U, the self-cleavage is 0.971. For G8A C38G, the self-cleavage amounted to 0.708.

As for G8A C38A, the self-cleavage was determined as 0.56. Turning to G8A C38U, the self-cleavage is 0.926. The same measure for G8C C20A: 0.461; for G8C C20G: 0.288. As for G8C C20U, the self-cleavage was found to be 0.433.

As to G8U G45C, the self-cleavage amounted to 0.768. On to G8U G45A, for which the self-cleavage stood at 0.744. To G8U G45U belongs 0.826; to G8C G18C, 0.564; to G8C G18U, 0.611. Turning to G8C G18A, the self-cleavage was 0.509. Take G8A G39U: the self-cleavage was determined as 0.369. Regarding G8A G39C, the self-cleavage was found to be 0.298. With G8A G39A, the self-cleavage was 0.417. Take G8A U13G: the self-cleavage is 1.24. For G8A U13C, the self-cleavage was 1.2. To G8A U13A belongs 1.04; to G8C A42U, 0.266; to G8C A42C, 0.363. To G8C A42G belongs 0.311; to G8A U24G, 1.32; to G8A U24C, 0.979. In the case of G8A U24A, the self-cleavage stood at 1.11. U7G U24C: the self-cleavage was 1.23. The same measure for U7G U24A: 1.4; for U7G U24G: 1.92. G8A A42U: the self-cleavage is 0.297. As for G8A A42C, the self-cleavage was found to be 0.373. To G8A A42G belongs 0.306; to G8C G25C, 0.242; to G8C G25A, 0.284. Take G8C G25U: the self-cleavage came to 0.329.

Regarding G8C U12C, the self-cleavage amounted to 1.11. With G8C U12G, the self-cleavage was 1.43. With G8C U12A, the self-cleavage came to 1.01.

Consider G8A G22U, for which the self-cleavage amounted to 0.384. To G8A G22C belongs 0.273. Consider G8A G22A, for which the self-cleavage was found to be 0.403. To G8A G25A belongs 0.405.

G8A G25C: the self-cleavage was determined as 0.276. To G8A G25U belongs 0.353; to G8C U28A, 1.22; to G8C U28G, 1.05. Regarding G8C U28C, the self-cleavage turned out to be 1.16. Consider G8A A34G, for which the self-cleavage came to 1.06. G8A A34C: the self-cleavage turned out to be 0.936. For G8A A34U, the self-cleavage was 0.89.

With G8C U21G, the self-cleavage was found to be 0.432. For G8C U21C, the self-cleavage worked out at 0.611. In the case of G8C U21A, the self-cleavage turned out to be 0.784.

As to G8A G45U, the self-cleavage was found to be 0.859. As to G8A G45C, the self-cleavage amounted to 0.512.

For the variant G8A G45A, the self-cleavage worked out at 0.704. To G8C C29A belongs 0.548; to G8C C29U, 0.758; to G8C C29G, 0.571. G8U G39C: the self-cleavage worked out at 0.417. For the variant G8U G39U, the self-cleavage came to 0.344. In the case of G8U G39A, the self-cleavage amounted to 0.395.

G8U G27U: the self-cleavage came to 0.554.

Regarding G8U G27C, the self-cleavage was 0.794. Regarding G8U G27A, the self-cleavage stood at 0.922. Take G8A C29U: the self-cleavage is 0.966. The same measure for G8A C29A: 0.565; for G8A C29G: 0.667; for G8U C11A: 1.11. Take G8U C11G: the self-cleavage is 1.21. To G8U C11U belongs 1.37; to G8A G10C, 1.46. Consider G8A G10U, for which the self-cleavage was found to be 1.31. For G8A G10A, the self-cleavage was found to be 1.16. G8C U19G: the self-cleavage is 0.428. With G8C U19A, the self-cleavage is 0.295. As to G8C U19C, the self-cleavage amounted to 0.544. For U7G U32C, the self-cleavage came to 1.03. As for U7G U32G, the self-cleavage came out at 0.796. Regarding U7G U32A, the self-cleavage is 1.49. Consider U7G U14C, for which the self-cleavage turned out to be 0.944. For the variant U7G U14G, the self-cleavage was 0.831. To U7G U14A belongs 1.46. With G8U A44C, the self-cleavage was 0.59. The same measure for G8U A44U: 0.688; for G8U A44G: 1.37. In the case of G8A C11U, the self-cleavage was 0.744. Regarding G8A C11G, the self-cleavage was 1.18. For the variant G8A C11A, the self-cleavage worked out at 1.28. For the variant G8A A40G, the self-cleavage amounted to 0.235.
